Consider two molecules from patent US20200282035A1 (MILTENYI BIOTEC B V, published 2020).

In one test the target is T1, TSPAN8 (human, UniProt P19075 1-237).
T1 construct: whole, on cells
T1 sequence (looked up): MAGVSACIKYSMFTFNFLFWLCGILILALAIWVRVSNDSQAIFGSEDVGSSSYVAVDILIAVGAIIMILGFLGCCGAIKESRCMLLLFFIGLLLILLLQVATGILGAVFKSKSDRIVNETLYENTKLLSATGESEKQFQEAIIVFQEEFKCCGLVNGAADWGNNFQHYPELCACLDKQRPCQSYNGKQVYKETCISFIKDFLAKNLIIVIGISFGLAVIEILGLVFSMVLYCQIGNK
The test is described as follows: antibody used for staining of human pancreatic cancer cells (flow cytometry, immunohistochemistry; Example 1); told in words only.

Another test has as its target T2, CD318 (human, UniProt Q9H5V8 30-836).
T2 construct: whole, on cells
T2 sequence (looked up): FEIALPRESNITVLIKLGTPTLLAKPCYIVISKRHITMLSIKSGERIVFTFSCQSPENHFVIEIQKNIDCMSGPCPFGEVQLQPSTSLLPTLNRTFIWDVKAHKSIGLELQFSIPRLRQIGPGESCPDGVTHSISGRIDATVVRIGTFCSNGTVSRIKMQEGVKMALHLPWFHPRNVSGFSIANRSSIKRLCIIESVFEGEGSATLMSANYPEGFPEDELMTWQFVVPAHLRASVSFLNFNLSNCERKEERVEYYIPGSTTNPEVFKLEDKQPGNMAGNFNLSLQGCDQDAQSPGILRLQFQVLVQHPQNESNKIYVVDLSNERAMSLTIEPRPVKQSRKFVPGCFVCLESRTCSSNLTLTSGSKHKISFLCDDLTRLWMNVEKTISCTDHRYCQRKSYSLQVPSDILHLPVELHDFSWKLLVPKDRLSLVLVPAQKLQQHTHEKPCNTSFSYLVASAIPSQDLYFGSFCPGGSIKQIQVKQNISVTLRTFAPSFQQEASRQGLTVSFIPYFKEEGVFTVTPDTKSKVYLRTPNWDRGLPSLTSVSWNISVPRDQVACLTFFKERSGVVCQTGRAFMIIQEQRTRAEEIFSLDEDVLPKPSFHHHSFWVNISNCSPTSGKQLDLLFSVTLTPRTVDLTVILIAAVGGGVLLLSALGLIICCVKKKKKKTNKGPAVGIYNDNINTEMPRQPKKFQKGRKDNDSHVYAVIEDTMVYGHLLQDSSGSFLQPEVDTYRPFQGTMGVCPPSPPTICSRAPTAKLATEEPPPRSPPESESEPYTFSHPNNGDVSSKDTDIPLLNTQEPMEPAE
The test is described as above.

B1: TSPAN8 specific antibody (antibody, V domains shown)
VH: EVKLLESGGGLVQPGGSMRLSCAASGFTFTDFYMNWIRQPAGKAPEWLGFIRNKASGYTTEYNPSVKGRFTISRDNTQNMLYLQMNTLRAEDTATYYCARAHSYYGYDYFDYWGQGVMVTVSS
VL: DIQMTQSPASLSASLEEIVTITCQASQDIGNWLSWYQQKPGKSPQLLIYGATSLADGVPSRFSGSRSGTQYSLKISRLQVEDIRIYYCLQAYSAPWTFGGGTKLELK
notes: also called TSPAN8 VH
Regarding B1, the binding result with TSPAN8 was “binds”.

B2: CD318 specific antibody (antibody, V domains shown)
VH: EVQLQQSGAELVRPGALVKLSCKASGFNIKDYYIHWVKQRPEQGLEWIGWIDPENGHTIYDPKFQGKASITADTSSNTAYLQLSSLTSEDTAVYYCARLTGTTYAMDYWGQGTSVTVSS
VL: DIVMTQSHKFMSTSVGDRVSITCKASQDVSTAVAWYQQKSGQSPKLLIYWASTRHTGVPDRFTGSGSGTDYTLTISSVQAEDLALYYCQQHYSTPYTFGGGTKLEIK
notes: also called CD318 VH
In the case of B2, in the test with CD318, the binding result is reported as “binds”.
